The record followed here is the supplement of paper PMC11246515.

The data set is described as follows: total protein half-life in vivo (active degradation + dilution); higher = more stable protein.
[1] abbreviates: E. coli NCM3722 delta-clpP delta-lon delta-hslV, growth: N-lim chemostat, doubling time 6 h.
Where [2] appears, read: E. coli NCM3722 delta-clpP, growth: N-lim chemostat, doubling time 6 h.
Where [3] appears, read: E. coli NCM3722 delta-hslV, growth: N-lim chemostat, doubling time 6 h.
[4] abbreviates: E. coli NCM3722 delta-smpB, growth: N-lim chemostat, doubling time 6 h.
Where [5] appears, read: wild type E. coli NCM3722, growth: C-lim chemostat, doubling time 3 h.
The mark [6] stands for this setting: wild type E. coli NCM3722, growth: C-lim chemostat, doubling time 6 h.
Where [7] appears, read: wild type E. coli NCM3722, growth: C-lim chemostat, doubling time 12 h.
Where [8] appears, read: wild type E. coli NCM3722, growth: N-lim chemostat, doubling time 6 h.
Where [9] appears, read: wild type E. coli NCM3722, growth: N-lim chemostat, doubling time 12 h.
Where [10] appears, read: wild type E. coli NCM3722, growth: P-lim chemostat, doubling time 6 h.
Where [11] appears, read: wild type E. coli NCM3722, growth: P-lim chemostat, doubling time 12 h.
Where [12] appears, read: E. coli NCM3722 delta-lon, growth: N-lim chemostat, doubling time 6 h.

± gives the standard deviation of the averaged measurements. Some results are limits rather than exact numbers.

On to “MKTAYIAKQRQISFVKSHFSRQLEERLGLIEVQAPILSRVGDGTQDNLSGCEKAVQVKVKALPDAQFEVVHSLAKWKRQTLGQHDFSAGEGLYTHMKALRPDEDRLSPLHSVYVDQWDWERVMGDGERQFSTLKSTVEAIWAGIKATEAAVSEEFGLAPFLPDQIHFVHSQELLSRYPDLDAKGRERAIAKDLGAVFLVGIGGKLSDGHRHDVRAPDYDDWSTPSELGHAGLNGDILVWNPVLEDAFELSSMGIRVDADTLKHQLALTGDEDRLELEWHQALLRGEMPQTIGGGIGQSRLTMLLLQLPHIGQVQCGVWPAAVRESVPSLL”, for which the “total protein half-life in vivo” value under setting [1] stood at 2.59 ± 0.04 h; the “total protein half-life in vivo” value under setting [2] was found to be 4.18 ± 2.2 h; the “total protein half-life in vivo” value under setting [3] came to 3.06 ± 0.71 h; the “total protein half-life in vivo” value under setting [4] was determined as 2.771 ± 0.0098 h; the “total protein half-life in vivo” value under setting [5] was 2.53 ± 0.085 h; the “total protein half-life in vivo” value under setting [6] worked out at 2.9 ± 0.16 h. In addition, the “total protein half-life in vivo” value reads like this: under setting [7], 5.26 ± 0.4 h; under setting [8], 2.29 ± 0.19 h; under setting [9], 4.02 ± 1 h; under setting [10], 2.37 ± 0.58 h; under setting [11], 5.24 ± 1.9 h.

As to “MNMMRIFYIGLSGVGMMFSSMASGNDAGGLQSPACGVVCDPYICVNSDGISPELTRKYLGEKAAENLQSLQGYDPSEFTFANGVFCDVKEKLCRDDRYFGVDGKRSGKINQTTTKMLFMCRE”, the “total protein half-life in vivo” value stood at 5.09 ± 1.6 h under setting [1]; 5.4 h under setting [2]; 6.01 ± 0.28 h under setting [3]; 5.64 h under setting [12]; 2.85 ± 0.51 h under setting [5]; 5.52 ± 0.4 h under setting [6]. Further, the “total protein half-life in vivo” value is, setting by setting: under setting [8], 4.42 ± 1.2 h; under setting [9], more than 16 h; under setting [10], 4.78 ± 0.93 h.

“MTHFSQQDNFSVAARVLGALFYYAPESAEAAPLVAVLTSDGWETQWPLPEASLAPLVTAFQTQCEETHAQAWQRLFVGPWALPSPPWGSVWLDRESVLFGDSTLALRQWMREKGIQFEMKQNEPEDHFGSLLLMAAWLAENGRQTECEELLAWHLFPWSTRFLDVFIEKAEHPFYRALGELARLTLAQWQSQLLIPVAVKPLFR”: the “total protein half-life in vivo” value is 3.98 ± 0.19 h under setting [1]; 4.54 ± 1.1 h under setting [2]; 4.18 ± 0.73 h under setting [3]; 5.74 ± 1.5 h under setting [12]; 4.5 ± 0.51 h under setting [4]; 3 ± 0.17 h under setting [5]. Moreover, the “total protein half-life in vivo” value is 5.45 h under setting [6]; 11.7 ± 1.3 h under setting [7]; 4.4 ± 0.41 h under setting [8]; 7.72 ± 1.9 h under setting [9]; 5.41 ± 0.39 h under setting [10]; 11.3 ± 0.19 h under setting [11].

As for “MRIHILGICGTFMGGLAMLARQLGHEVTGSDANVYPPMSTLLEKQGIELIQGYDASQLEPQPDLVIIGNAMTRGNPCVEAVLEKNIPYMSGPQWLHDFVLRDRWVLAVAGTHGKTTTAGMATWILEQCGYKPGFVIGGVPGNFEVSAHLGESDFFVIEADEYDCAFFDKRSKFVHYCPRTLILNNLEFDHADIFDDLKAIQKQFHHLVRIVPGQGRIIWPENDINLKQTMAMGCWSEQELVGEQGHWQAKKLTTDASEWEVLLDGEKVGEVKWSLVGEHNMHNGLMAIAAARHVGVAPADAANALGSFINARRRLELRGEANGVTVYDDFAHHPTAILATLAALRGKVGGTARIIAVLEPRSNTMKMGICKDDLAPSLGRADEVFLLQPAHIPWQVAEVAEACVQPAHWSGDVDTLADMVVKTAQPGDHILVMSNGGFGGIHQKLLDGLAKKAEAAQ”, the “total protein half-life in vivo” value under setting [1] is 5.233 ± 0.034 h; the “total protein half-life in vivo” value under setting [3] was 5.14 ± 0.089 h; the “total protein half-life in vivo” value under setting [12] was determined as 6.73 ± 0.28 h; the “total protein half-life in vivo” value under setting [4] amounted to 5.26 ± 0.38 h; the “total protein half-life in vivo” value under setting [5] is 2.84 ± 0.21 h; the “total protein half-life in vivo” value under setting [7] was 12.236 ± 0.0033 h. For the same sequence, the “total protein half-life in vivo” value came out at 5.58 ± 0.38 h under setting [8], 9.82 ± 1.3 h under setting [9], 5.99 ± 0.1 h under setting [10] and 12.4 ± 0.71 h under setting [11].

For the sequence “MENKYSRLQISIHWLVFLLVIAAYCAMEFRGFFPRSDRPLINMIHVSCGISILVLMVVRLLLRLKYPTPPIIPKPKPMMTGLAHLGHLVIYLLFIALPVIGLVMMYNRGNPWFAFGLTMPYASEANFERVDSLKSWHETLANLGYFVIGLHAAAALAHHYFWKDNTLLRMMPRKRS [P0ABE5]”, the “total protein half-life in vivo” value was determined as 7.28 h under setting [1]; 5.78 h under setting [2]; 6.32 h under setting [3]; 5.9 h under setting [4]; 2.81 ± 0.06 h under setting [5]; 5.31 h under setting [6]. Also, the “total protein half-life in vivo” value was determined as 14.8 h under setting [7], 10.6 h under setting [9] and 11.9 h under setting [11].

For “MAAKDRIQAIKQMVANDKKVTVSNLSGIFQVTEETIRRDLEKLEDEGFLTRTYGGAVLNTAMLTENIHFYKRASSFYEEKQLIARKALPFIDNKTTMAADSSSTVMELLKLLQDRSGLTLLTNSAEAIHVLAQSEIKVVSTGGELNKNTLSLQGRITKEIIRRYHVDIMVMSCKGLDINSGALDSNEAEAEIKKTMIRQATEVALLVDHSKFDRKAFVQLADFSHINYIITDKSPGAEWIAFCKDNNIQLVW”, the “total protein half-life in vivo” value under setting [1] was 5.6 ± 0.062 h; the “total protein half-life in vivo” value under setting [3] was 5.31 ± 0.24 h; the “total protein half-life in vivo” value under setting [12] worked out at 5.25 ± 1.1 h; the “total protein half-life in vivo” value under setting [4] was determined as 5.12 ± 0.069 h; the “total protein half-life in vivo” value under setting [5] was 2.93 ± 0.12 h; the “total protein half-life in vivo” value under setting [6] stood at 5.96 ± 0.83 h. The “total protein half-life in vivo” value by setting is: under setting [7], 9.64 ± 0.74 h; under setting [8], 5.5 ± 0.2 h; under setting [9], 9.92 ± 1.1 h; under setting [10], 5.45 ± 0.52 h; under setting [11], 13 ± 2.9 h.
